# Experimental data reported in patent US20230103584A1 (BLACK BELT THERAPEUTICS, published 2023).
# B1: aCD38-b-348 (human IgG1) (antibody, V domains shown)
# VH: QLQLQESGPGLVKPSETLSLTCTVSGGSISSSDYYWGWIRQPPGKGLEWIGSIYYSGSTYYNPSLKSRVTISVDTSKNQFSLKLSSVTAADTAVYYCARGQYSSGWYAYPFDMWGQGTMVTVSS
# VL: EIVLTQSPGTLSLSPGERATLSCRASQSVRSSYLAWYQQKPGQAPRLLIYGASSRATGIPDRFSGSGSGTDFTLTISRLEPEDFAVYYCQQDGNVYTFGGGTKVEIK
# notes: First made as IgG in yeast
# B2: aCD38-b-348-m1 (antibody, IgG1, V domains shown)
# VH: QLQLQESGPGLVKPSETLSLTCTVSGGSISSSDYYWGWIRQPPGKGLEWIGSIYYSGSTYYNPSLKSRVTISVDTSKNQFSLKLSSVTAADTAVYYCARGQYSSGWYAYPFDMWGQGTMVTVSS
# VL: EIVLTQSPGTLSLSPGERATLSCRASQSVRSSYLAWYQQKPGQAPRLLIYGASSRATGIPDRFSGSGSGTDFTLTISRLEPEDFAVYYCQQEANVYTFGGGTKVEIK
# B3: aCD38-b-348-m2 (antibody, IgG1, V domains shown)
# VH: QLQLQESGPGLVKPSETLSLTCTVSGGSISSSDYYWGWIRQPPGKGLEWIGSIYYSGSTYYNPSLKSRVTISVDTSKNQFSLKLSSVTAADTAVYYCARGQYSSGWYAYPFDMWGQGTMVTVSS
# VL: EIVLTQSPGTLSLSPGERATLSCRASQSVRSSYLAWYQQKPGQAPRLLIYGASSRATGIPDRFSGSGSGTDFTLTISRLEPEDFAVYYCQQDSNVYTFGGGTKVEIK
# B4: aCD38-b-348-m3 (antibody, IgG1, V domains shown)
# VH: QLQLQESGPGLVKPSETLSLTCTVSGGSISSSDYYWGWIRQPPGKGLEWIGSIYYSGSTYYNPSLKSRVTISVDTSKNQFSLKLSSVTAADTAVYYCARGQYSSGWYAYPFDMWGQGTMVTVSS
# VL: EIVLTQSPGTLSLSPGERATLSCRASQSVRSSYLAWYQQKPGQAPRLLIYGASSRATGIPDRFSGSGSGTDFTLTISRLEPEDFAVYYCQQDANVYTFGGGTKVEIK
# B5: aCD38-b-348-m4 (antibody, IgG1, V domains shown)
# VH: QLQLQESGPGLVKPSETLSLTCTVSGGSISSSDYYWGWIRQPPGKGLEWIGSIYYSGSTYYNPSLKSRVTISVDTSKNQFSLKLSSVTAADTAVYYCARGQYSSGWYAYPFDMWGQGTMVTVSS
# VL: EIVLTQSPGTLSLSPGERATLSCRASQSVRSSYLAWYQQKPGQAPRLLIYGASSRATGIPDRFSGSGSGTDFTLTISRLEPEDFAVYYCQQEGNVYTFGGGTKVEIK
# Tests used:
# [1] = molecular target: Recombinant, Histidine-tagged extracellular domain of human CD38 (human) (UniProt P28907); assay: ForteBio BLI
# [2] = molecular target: T1, Cynomolgus monkey CD38 expressed on T cells / PBMC (Cynomolgus monkey, UniProt Q5VAN0 1-301); assay: flow cytometry on cynomolgus cells, gated on CD8-positive cells, secondary antibody staining
# T1 construct: whole, on cells; also called cyno T cells; cynomolgus pan T cells
# T1 sequence (looked up): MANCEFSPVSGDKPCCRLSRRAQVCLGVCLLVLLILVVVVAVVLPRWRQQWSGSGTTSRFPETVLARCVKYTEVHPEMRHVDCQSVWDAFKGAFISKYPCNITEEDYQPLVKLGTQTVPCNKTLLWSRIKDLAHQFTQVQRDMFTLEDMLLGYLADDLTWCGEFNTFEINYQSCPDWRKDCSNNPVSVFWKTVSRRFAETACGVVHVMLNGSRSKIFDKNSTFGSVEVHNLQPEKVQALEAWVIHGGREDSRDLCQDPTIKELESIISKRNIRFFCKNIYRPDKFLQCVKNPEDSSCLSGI
# [3] = molecular target: T2, Human CD38 expressed on cells (Daudi, Raji, Jurkat, human PBMC/T cells, Tregs, HEK-293T transfectants) (human, UniProt P28907 1-300); assay: cell-based or functional assay
# T2 sequence: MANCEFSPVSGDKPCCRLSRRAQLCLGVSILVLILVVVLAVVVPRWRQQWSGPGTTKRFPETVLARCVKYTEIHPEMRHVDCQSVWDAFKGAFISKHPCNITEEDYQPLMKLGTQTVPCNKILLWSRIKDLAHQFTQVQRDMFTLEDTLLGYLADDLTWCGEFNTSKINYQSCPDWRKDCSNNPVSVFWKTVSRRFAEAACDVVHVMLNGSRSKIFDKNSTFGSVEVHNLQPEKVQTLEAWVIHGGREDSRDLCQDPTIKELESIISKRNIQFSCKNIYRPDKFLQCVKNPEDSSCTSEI
# [4] = molecular target: T2, Human CD38 expressed on cells (Daudi, …); assay: cell-based or functional assay; remark: listed apart in the source
# [5] = molecular target: T2, Human CD38 expressed on cells (Daudi, …); assay: cell-based or functional assay; remark: listed apart in the source
# [6] = molecular target: T1, Cynomolgus monkey CD38 expressed on T …; assay: flow cytometry on cynomolgus cells, gated on CD4-positive cells, secondary antibody staining
# [7] = molecular target: T2, Human CD38 expressed on cells (Daudi, …); assay: cell-based or functional assay; remark: listed apart in the source
molecule,measurement,setting,value
"IB4, reference monoclonal agonistic mouse anti-human CD38 antibody",Kd,[1],9 nM
B1,EC50 (read off the curve),[2],~0.9 µg/mL
same,"ADCC EC50, target Daudi cells (experiment 6)",[3],0.00032 µg/mL
same,"ADCC EC50, target Daudi cells (experiment 7)",[3],0.0008 µg/mL
same,"ADCC EC50, target Daudi cells (experiment 8)",[3],0.00042 µg/mL
same,"CDC EC50, 10% complement, target Daudi cells (experiment 15)",[4],0.17 µg/mL
same,"CDC EC50, 10% complement, target Daudi cells (experiment 16)",[4],0.34 µg/mL
same,"CDC EC50, 10% complement, target Daudi cells (experiment 17)",[4],0.26 µg/mL
same,"CDC EC50, 10% complement, target Raji cells",[5],0.3 µg/mL
same,"CDC EC50, 10% complement, target Raji cells (repeat)",[5],0.17 µg/mL
same,EC50 (read off the curve),[6],~0.9 µg/mL
same,ADCC Max. % lysis,[7],44%
B2,ADCC Max. % lysis,[7],38%
B3,ADCC Max. % lysis,[7],44%
B4,ADCC Max. % lysis,[7],39%
B5,ADCC Max. % lysis,[7],38%
